These results are taken from US20060024667A1 (PRIMEX CLINICAL LABORATORIES, published 2006).

Sequences and labels used below:
B1: HCDR3-derived synthetic peptide N44 (peptide)
peptide: ASVRGWYVRSVFDPA
notes: HCDR3 of clone b4.4 with an alanine at each end, without cysteines; linear; also called linear N44; linear peptide N44
B2: scrambled cyclic peptide ScrC44 (peptide)
peptide: CADWRYRSVFGPVSVAC
modifications: disulfide 1-17 (inferred); not fully specified
notes: Negative control; also called Scr44; cyclic peptide with scrambled amino acids

Positions of bridges follow the written chain, without caps; N, C: chain ends. No end group written: not given here.

T1 sequence (P05067 672-713 limits assumed): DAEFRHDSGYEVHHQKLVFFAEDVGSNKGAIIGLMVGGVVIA

The experiment concerns the target T1, biotinylated Aβ42 (human, UniProt P05067 672-713, biotinylated (site not stated)).
T1 construct: domain: amyloid-beta peptide (Aβ42); Added in solution (PBS/1% BSA) to plates coated with the HCDR3-derived peptides; detected with avidin-peroxidase; also called Aβ42 (biotinylated)
Kind of experiment: ELISA, peptide coated at 10 µg/ml, biotinylated Aβ42 in solution. In general terms: ELISA stands for enzyme-linked immunosorbent assay.
Consider B1, for which the binding result is on record as “no binding”. As to IWGCSGKLICTTAVP (bridge 4-10 (inferred); also: cyclic via two Cys, bond not described, Negative control) [non-related cyclic peptide GM15], the binding result is “no binding”.

In the case of B2, the binding result was “no binding”.
